From US20240358847A1, “TROP2 BINDERS AND CONJUGATES THEREOF” (MERCK SHARP & DOHME LLC, priority 2023, published 2024)

How the values were obtained:
[1] = Hydrophobic interaction chromatography (HIC); assay type: physicochemical; conditions: butyl HIC column, FIG. 4
Procedure: The samples are eluted using an inverted gradient from mobile phase A to 50 mM sodium phosphate, pH 7.0/isopropanol (80:20 v/v) (mobile phase B). The elution is followed by recording the A280 nm as a function of time, the data is then exported and analyzed using the Empower software.
(§1) Developability characteristics for various mutants were performed as in Bailly Et al., Predicting Antibody Developability Profiles Through Early Stage Discovery Screening, MABS 12 (1): e1743053 (2020) (doi: 10.1080/19420862.2020.17430530), which is incorporated herein by reference in its entirety. Various methods used may be found herein under General Methods.

UP-SEC aggregation = assay type: physicochemical
Procedure: as §1

[2] = Drug antibody ratio (DAR) of ADC by MS / HIC; assay type: physicochemical
Procedure: A 100 mM solution of dehydroascorbic acid (8.0 equiv.) in water was added slowly and the solution was mixed at room temperature for 4-10 hours or until completion (monitored by reverse phase liquid chromatography (RP-LC) and sodium dodecyl sulfate capillary electrophoresis (CE-SDS)). A 20 mg/mL solution of linker-payload (3.0 equiv.) in DMSO was added and the conjugation was incubated at room temperature for 2 hours (monitored by Quadrupole time-of-flight (QTOF) mass spectrometry (MS)) before addition of L-cysteine (5 equiv., 50 mM in water) to quench residual linker-payload. […] The ADC was brought to the final desired concentration using Sartorius Vivacell 70 Centrifugal Concentrators and Amicon® Ultra Centrifugal Filters.
The control antibody profile is the unconjugated antibody.

[3] = tested on: BxPC3 pancreatic cancer cells; assay: In vivo anti-tumor efficacy in BxPC3 mouse model; parameters: species or system BALB/c nude mice; conditions: dose response, IV single dose, FIG. 14
Procedure: Experimental protocol: 7-8 week old female BALB/c nude mice were purchased from Gempharmatech Co., Ltd. ([…]). […] Mouse body weights and tumors were measured twice weekly, and tumor volumes calculated using the formula V=0.5 [a*b2]; where a and b are the long and short diameters of the tumor, respectively. 110 mice were assigned to 11 groups of 10 mice each using a computer-generated randomization procedure to minimize tumor volume variance across groups. Treatments were started when tumors reached an average size of 200 mm^3. PBS and the MMAE conjugates were dosed intravenously (IV) at 2 mg/kg according to Table 25.
Mouse body weights and tumors were measured twice weekly, and tumor volumes calculated using the formula V=0.5 [a*b2]; where a and b are the long and short diameters of the tumor, respectively. 70 mice were assigned to 7 groups of 10 mice each using a computer-generated randomization procedure to minimize tumor volume variance across groups. Treatments were started when tumors reached an average size of 200 mm^3. PBS, a control mAb, and bioconjugate were dosed intravenously (IV) according to Table 26.

[4] = Rat PK of αTROP2 MMAE ADC (tAb, cAb, released MMAE); assay type: in vivo, Wistar Hannover Rats; conditions: 5 mg/kg IV, up to 14 days, LLOQ […]
Procedure: Plasma concentrations of payload conjugated anti-TROP2 antibody (cAb), total antibody (tAb), and released payload were measured up to 14 days post dose.

Non-reducing CE-SDS = assay type: physicochemical
Procedure: as §1

B1: αTROP2 (HC:BSM-YTE-S375C) (LC:BSM-Y53D): HC SEQ ID NO: 20 or 90; LC SEQ ID NO: 22 (antibody)
heavy: QVQLLQSGSELKKPGASVKVSCKASGYTFTNYGMNWVRQAPGQGLKWMGWINTYTGEPTYTDDFKGRFSFSLDTSVSQAYLQISSLKAEDTAVYYCARGGFGSSYWYFDVWGQGTLVTVSSASTKGPSVFPLAPSSKSTSGGTAALGCLVKDYFPEPVTVSWNSGALTSGVHTFPAVLQSSGLYSLSSVVTVPSSSLGTQTYICNVNHKPSNTKVDKKVEPKSCDKTHTCPPCPAPELLGGPSVFLFPPKPKDTLYITREPEVTCVVVDVSHEDPEVKFNWYVDGVEVHNAKTKPREEQYNSTYRVVSVLTVLHQDWLNGKEYKCKVSNKALPAPIEKTISKAKGQPREPQVYTLPPSRDELTKNQVSLTCLVKGFYPCDIAVEWESNGQPENNYKTTPPVLDSDGSFFLYSKLTVDKSRWQQGNVFSCSVMHEALHNHYTQKSLSLSPGK
light: DIQLTQSPSSLSASVGDRVTITCKASQDVSIAVAWYQQKPGKAPKLLIYSASDRYTGVPSRFSGSGSGTDFTLTISSLQPEDFATYYCQQHYITPLTFGPGTKVEIKRTVAAPSVFIFPPSDEQLKSGTASVVCLLNNFYPREAKVQWKVDNALQSGNSQESVTEQDSKDSTYSLSSTLTLSKADYEKHKVYACEVTHQGLSSPVTKSFNRGEC
modifications: YTE Fc mutations
HIC peak elution [1]: 24.14 fraction

B2: αTROP2 (HC: BSM-YTE-S375C-MMAE)(LC: BSM-Y53D) (conjugate)
heavy: B1 heavy
light: B1 light
% HMW (SEC) (UP-SEC aggregation; Table 22): 4.33%
% HMW (SEC) (UP-SEC aggregation; Table 23): 4.33%
DAR ([2]; Table 22): 1.7
DAR ([2]; Table 23): 1.7

B3: ADC 1: αTROP2 (HC:BSM-YTE-S375C) (LC:BSM-Y53D) conjugated to MP-AA-PABC-MMAE (conjugate)
heavy: B1 heavy
light: B1 light
tumor volume [3]: effective at reducing tumor volume
Purity by UP-SEC (UP-SEC aggregation): 96.4%
unconjugated antibody ([2]; by MS): unconjugated antibody (1.2%)
unconjugated MMAE in the plasma [4]: no detectable
Purity by CE-SDS NR (Non-reducing CE-SDS): 94.7%
